The results in this text go back to PMC6651876, “PEA-15 C-Terminal Tail Allosterically Modulates Death-Effector Domain Conformation and Facilitates Protein–Protein Interactions” (International Journal of Molecular Sciences, 2019).

The assay concerns the target T1, PEA-15 S104D/S116D double mutant (PEA-15DD) (UniProt Q15121 1-130, S104D | S116D).
T1 construct: PEA-15 (phosphoprotein enriched in astrocytes, 15 kDa), full length, with the phosphomimetic mutations S104D and S116D; Made by site-directed mutagenesis of the PEA-15 plasmid (pET-28b); expressed and purified as the wild type
Put plainly: NMR titration; data not shown: spectra of uniformly labeled PEA-15DD with unlabeled FADD at molar ratios 1:0.5, 1:1 and 1:2; 20 mM sodium phosphate pH 7.0, 150 mM NaCl, 1 mM DTT. As to conditions: both partners purified.

T1 sequence (Q15121 whole entry S104D/S116D): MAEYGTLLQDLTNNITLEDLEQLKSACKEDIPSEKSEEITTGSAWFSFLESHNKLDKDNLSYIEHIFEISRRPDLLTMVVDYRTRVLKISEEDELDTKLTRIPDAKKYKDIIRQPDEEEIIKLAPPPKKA

B1: Fas-associated death domain (FADD) protein, full length (natural protein, UniProt Q13158 1-208, looked up)
chain: MDPFLVLLHSVSSSLSSSELTELKFLCLGRVGKRKLERVQSGLDLFSMLLEQNDLEPGHTELLRELLASLRRHDLLRRVDDFEAGAAAGAAPGEEDLCAAFNVICDNVGKDWRRLARQLKVSDTKIDSIEDRYPRNLTERVRESLRIWKNTEKENATVAHLVGALRSCQMNLVADLVQEVQQARDLQNRSGAMSPMSWNSDASTSEAS
notes: FADD (Fas-associated death domain protein), full length; Cloned into pET-28b between NdeI and BamHI
Take B1: the “stoichiometry N” value was found to be 1.

What is called stoichiometry N is the number of molecules, sites or subunits per partner or assembly.
